The results in this text go back to publication PMC2171039.

For experiment [1], the target named is Vps32 (Aspergillus nidulans). Nature of the experiment: two-hybrid.
Experiment [2] addresses GST::PalC (Aspergillus nidulans). The experiment can be described thus: pull-down.

Vps32 (Aspergillus nidulans), sequence (C8V487 whole entry): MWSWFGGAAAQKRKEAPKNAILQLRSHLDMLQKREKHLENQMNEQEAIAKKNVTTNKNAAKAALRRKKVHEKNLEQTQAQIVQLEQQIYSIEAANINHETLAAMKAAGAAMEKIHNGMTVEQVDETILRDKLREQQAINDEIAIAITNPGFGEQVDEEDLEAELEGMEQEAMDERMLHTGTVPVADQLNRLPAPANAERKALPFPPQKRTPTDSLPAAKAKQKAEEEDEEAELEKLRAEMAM

In experiment [1], PalC Arg442Ala (natural protein) returned a β-galactosidase activity, % of the wild type (% of the wild type) of 18.
In experiment [1], PalC Arg442His (natural protein) registered a β-galactosidase activity, % of the wild type (% of the wild type) of 11.
With zz-Vps32 (natural protein), in experiment [2], the stoichiometry N (mol of zz-Vps32 per mole of GST::PalC) was 0.9.
